Source: article doi:10.1101/2023.05.30.542861 (bioRxiv, 2023)

Molecular target: the molecule itself
Assay: cross-linking

B1: L-Glutamate dehydrogenase from bovine liver (enzyme)
chain: not shown
stoichiometry N: 6
